Test [1] addresses PtAUREO1c (aureochrome 1c from Phaeodactylum tricornutum), full length (Phaeodactylum tricornutum). In words: MST.
Test [2] addresses PtAUREO1a bZIP-A′α-LOV-Jα functional module (residues D145-D378) (Phaeodactylum tricornutum). In words: SAXS.
For test [3] the target is unchanged. In words: SEC.
Test [4] shares this target. Description: SEC. This is another data set of the same source.
Test [5] shares this target. In words: MST.
Test [6] has the same target. In words: MST. The source holds these as a separate data set.

This is an account of results in publication PMC4937327.

Read-outs that look alike come from different tables or passages of the source.

As a reminder, the Kd is the constant that tells how readily two partners part at equilibrium. Lower therefore signals tighter binding. As usually defined, the stoichiometry N is the number of molecules, sites or subunits per partner or assembly.

In the case of “PtAUREO1a (aureochrome 1a from Phaeodactylum tricornutum), full length (natural protein)”, in test [1], the Kd stood at 240 nM.
As to “PtAUREO1a bZIP-A′α-LOV-Jα functional module (residues D145-D378) (domain or fragment)”, the stoichiometry N in test [2], in test [3] and in test [4] was 2 in each case. Moreover, the figures for the Kd in test [5] and in test [1] were 240 to 280 nM and 450 nM, respectively.
“dsDNA/bZIP-A′α-LOV-Jα complex (PtAUREO1a bZIP-A′α-LOV-Jα dimer bound to dsDNA)”: the Kd in test [6] was determined as 2600 nM; in test [5] it was 800 nM.
